# B1: rIL4: Recombinant rat IL4 (R & D Systems), injected intra-cisterna magna (protein, UniProt P20096 25-147, looked up)
# Interleukin-4: CNDSPLREIINTLNQVTEKGTPCTEMFVPDVLTATRNTTENELICRASRVLRKFYFPRDVPPCLKNKSGVLGELRKLCRGVSGLNSLRSCTVNESTLTTLKDFLESLKSILRGKYLQSCTSMS
# How the values were obtained:
# Assay type in all cases: in vivo, rat
# IL-4 = experiment: Blocking of M. vaccae effects on hippocampal gene expression by ICM soluble IL-4 receptor alpha; settings: 5 μg, ICM injection after M. vaccae at day −21, −14, −7
# Procedure: FIG. 25 is a schematic depicting the experimental design configured to develop and validate IL-4 blocking methods in the brain. The schematic depicts the timing of M. vaccae or BBS treatment and intra-cisterna magna (ICM) injections containing soluble IL-4 receptor alpha or vehicle followed by tissue collection and analysis.
# FIG. 26A-C show rtPCR detection in collection tissue samples after ICM injections for IL-4 (A); CD200R1 (B); and CD206 (C).
# In this embodiment, rats were administered M. vaccae or BBC (at day −21, −14, and −7) and then administered 5 μg of soluble IL-4 receptor alpha or a control vehicle.
# Cd200r1 = experiment: Hippocampal Cd200r1 mRNA expression (real time RT-PCR); settings: 100 ng i.c.m.
# Procedure: (§1) Animals: Adult male Sprague-Dawley rats (60-90 d old) were pair-housed with food and water available ad libitum. The colony was maintained at 22° C. on a 12 h light/dark cycle (lights on at 07:00 h).
# (§2) M. vaccae treatment: M. vaccae is a saprophytic environmental mycobacterium, which we have used previously to mitigate stress-induced anxiety-like behavior and peripheral proinflammatory responses. Briefly, whole heat-killed M. vaccae (strain NCTC 11659, batch ENG 1; Bio Elpida; 10 mg/ml) was suspended in sterile borate-buffered saline (BBS) to yield a final concentration of 1 mg/ml. Sterile BBS served as the vehicle control. Consistent with our prior work with M. vaccae, experimental animals received 3× subcutaneous (s.c.) immunizations with 0.1 mg whole heat-killed M. vaccae suspension (0.1 ml) or vehicle (0.1 ml). Injections occurred at −21 d, −14 d and −7 d prior to stress exposure. FIG. 5 provides a timeline of M. vaccae treatment relative to stress exposure, behavioral testing and tissue/microglia collection.
# (§3) Recombinant rat IL4 (rIL4) treatment: Vehicle (sterile 1× PBS+0.1% BSA) or rIL4 (100 ng dissolved in vehicle; R & D Systems) was injected intra-cisterna magna (i.c.m.; 5 μl total volume). Two and 24 h post-injection, hippocampus was collected for gene expression analysis of IL4-sensitive target genes. […]
# Mrc1 = experiment: Hippocampal Mrc1 mRNA expression (real time RT-PCR); settings: 100 ng i.c.m., 2 h post-injection
# Procedure: as §1, §2, §3
# Cd200 = experiment: Hippocampal Cd200 mRNA expression (real time RT-PCR); settings: 100 ng i.c.m., 2 h and 24 h post-injection
# Procedure: as §1, §2, §3
Molecule,Effect of M. vaccae administration on hippocampal gene expression (IL-4),Cd200r1 expression in hippocampus (Cd200r1; 2 h post-injection),Cd200r1 expression in hippocampus (Cd200r1; 24 h post-injection),Mrc1 expression in hippocampus (Mrc1),Cd200 expression in hippocampus (Cd200)
"soluble IL-4 receptor alpha: soluble form of IL-4 receptor alpha, can inhibit IL4-mediated cell proliferation; ICM injection",blocked,,,,
B1,,significant increase,significant increase,significant increase,failed to significantly alter

# Source: patent US11904007B2, “Protection from stress, anxiety, neuroinflammation, and cognitive dysfunction” (The Regents of the University of Colorado, a body corporate, priority 2018, dated 2024)
